According to publication PMC11758952, “A kinetic model for compound heterozygous pathogenic variants in Tyrosyl-tRNA synthetase gene YARS2-Associated neonatal phenotype” (The Journal of Biological Chemistry, 2024):

Target: the molecule itself
Assay: native gel or EMSA; native 8% PAGE of the unlinked enzyme (20 ug), 0.75 M Tris pH 8.8, 4 °C, 90 V for 3 h, Western blot (anti-His, anti-mt-TyrRS)

B1: human mitochondrial tyrosyl-tRNA synthetase (mt-TyrRS), WT/WT unlinked homodimer (enzyme, UniProt Q9Y2Z4 17-477, looked up)
chain: TLNLSVLLPLGLRKAHSGAQGLLAAQKARGLFKDFFPETGTKIELPELFDRGTASFPQTIYCGFDPTADSLHVGHLLALLGLFHLQRAGHNVIALVGGATARLGDPSGRTKEREALETERVRANARALRLGLEALAANHQQLFTDGRSWGSFTVLDNSAWYQKQHLVDFLAAVGGHFRMGTLLSRQSVQLRLKSPEGMSLAEFFYQVLQAYDFYYLFQRYGCRVQLGGSDQLGNIMSGYEFINKLTGEDVFGITVPLITSTTGAKLGKSAGNAVWLNRDKTSPFELYQFFVRQPDDSVERYLKLFTFLPLPEIDHIMQLHVKEPERRGPQKRLAAEVTKLVHGREGLDSAKRCTQALYHSSIDALEVMSDQELKELFKEAPFSEFFLDPGTSVLDTCRKANAIPDGPRGYRMITEGGVSINHQQVTNPESVLIVGQHILKNGLSLLKIGKRNFYIIKWLQL
notes: Construct provided by R. Giege; also called YARS2 enzyme; not shown: His-tag, C-terminal, kept
B1: binds.

B2: human mitochondrial tyrosyl-tRNA synthetase F185L, F185L/F185L unlinked homodimer (enzyme, UniProt Q9Y2Z4 17-477, looked up)
chain: TLNLSVLLPLGLRKAHSGAQGLLAAQKARGLFKDFFPETGTKIELPELFDRGTASFPQTIYCGFDPTADSLHVGHLLALLGLFHLQRAGHNVIALVGGATARLGDPSGRTKEREALETERVRANARALRLGLEALAANHQQLFTDGRSWGSFTVLDNSAWYQKQHLVDLLAAVGGHFRMGTLLSRQSVQLRLKSPEGMSLAEFFYQVLQAYDFYYLFQRYGCRVQLGGSDQLGNIMSGYEFINKLTGEDVFGITVPLITSTTGAKLGKSAGNAVWLNRDKTSPFELYQFFVRQPDDSVERYLKLFTFLPLPEIDHIMQLHVKEPERRGPQKRLAAEVTKLVHGREGLDSAKRCTQALYHSSIDALEVMSDQELKELFKEAPFSEFFLDPGTSVLDTCRKANAIPDGPRGYRMITEGGVSINHQQVTNPESVLIVGQHILKNGLSLLKIGKRNFYIIKWLQL
notes: Paternally inherited variant of the patient; also called p.F185L; not shown: His-tag, C-terminal, kept
B2: binds.
